# Read-outs that look alike come from different tables or passages of the source.
# T1: recombinant tissue factor containing transmembrane spanning domain (TF 1-248), relipidated
# T1 chain: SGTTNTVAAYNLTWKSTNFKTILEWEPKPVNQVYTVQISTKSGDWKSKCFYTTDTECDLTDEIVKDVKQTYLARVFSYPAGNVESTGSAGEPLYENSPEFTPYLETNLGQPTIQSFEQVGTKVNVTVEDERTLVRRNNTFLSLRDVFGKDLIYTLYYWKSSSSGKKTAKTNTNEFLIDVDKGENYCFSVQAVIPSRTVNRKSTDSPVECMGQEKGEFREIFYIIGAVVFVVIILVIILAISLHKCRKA
# What was measured:
# Test in all cases: SPR
# [1] = biological target: soluble tissue factor (TF 1-219) (UniProt P13726 33-251)
# [2] = biological target: T1, recombinant tissue factor containing …
# [3] = biological target: T1, recombinant tissue factor containing …
binder,measurement,setting,value
Factor VIIa (enzyme) chain 1: ANAFLEELRPGSLERECKEEQCSFEEAREIFKDAERTKLFWISYSDGDQCASSPCQNGGSCKDQLQSYICFCLPAFEGRNCETHKDDQLICVNENGGCEQYCSDHTGTKRSCRCHEGYSLLADGVSCTPTVEYPCGKIPILEKRNASKPQGR chain 2: IVGGKVCPKGECPWQVLLLVNGAQLCGGTLINTIWVVSAAHCFDKIKNWRNLIAVLGEHDLSEHDGDEQSRRVAQVIIPSTYVPGTTNHDIALLRLHQPVVLTDHVVPLCLPERTFSERTLAFVRFSLVSGWGQLLDRGATALELMVLNVPRLMTQDCLQQSRKVGDSPNITEYMFCAGYSDGSKDSCKGDSGGPHATHYRGTWYLTGIVSWGQGCATVGHFGVYTRVSQYIEWLQKLMRSEPRPGVLLRAPFP,Kd,[1],11.6 nM
same,koff,[1],0.00592 s⁻¹
same,kon,[1],475000 M⁻¹ s⁻¹
same,Kd,[2],0.0457 nM
same,koff,[2],0.000234 s⁻¹
same,kon,[2],2.73e+06 M⁻¹ s⁻¹
same,Kd,[3],0.0474 nM
same,koff,[3],0.000233 s⁻¹
same,kon,[3],2.58e+06 M⁻¹ s⁻¹

# Source: PMC2864353 (Blood coagulation & fibrinolysis : an international journal …, 2010)
